{"source": "the RNAGym collection of RNA variant scans (doi:10.7554/elife.80360)", "parents": {"B1": {"name": "CPEB3 Ribozyme (parent)", "chain": "GGGGGCCACAGCAGAAGCGUUCACGUCGCGGCCCCUGUCAGAUUCUGGUGAAUCUGCGAAUUCUGCUGU"}}}
{"variants_of": "B1", "assay": "self-cleavage, relative activity (ratio to wild type); higher = more cleavage; co-transcriptional"}
{"variant": "GGGGUCCACAGCAGAAGCGUUCACUUCGCGGCCCCUGUCAGAUUCUGGUGAAUCUGCGAAUUCUGCUGU", "self-cleavage": 0.0766}
{"variant": "GGGGUCCACAGCAGAAGCGUUCACAUCGCGGCCCCUGUCAGAUUCUGGUGAAUCUGCGAAUUCUGCUGU", "self-cleavage": 0.0881}
{"variant": "GGGGUCCACAGCAGAAGCGUUCACGGCGCGGCCCCUGUCAGAUUCUGGUGAAUCUGCGAAUUCUGCUGU", "self-cleavage": 0.103}
{"variant": "GGGGUCCACAGCAGAAGCGUUCACGACGCGGCCCCUGUCAGAUUCUGGUGAAUCUGCGAAUUCUGCUGU", "self-cleavage": 0.132}
{"variant": "GGGGUCCACAGCAGAAGCGUUCACGUCGCGGCCCCUGUCAGAUUCUUGUGAAUCUGCGAAUUCUGCUGU", "self-cleavage": 0.296}
{"variant": "GGGGUCCACAGCAGAAGCGUUCACGUCGCGGCCCCUGUCAGAUUCUAGUGAAUCUGCGAAUUCUGCUGU", "self-cleavage": 0.294}
{"variant": "GGGGUCCACAGCAGAAGCGUUCACGUCGCGGCCCCUGUCAGAUUCUCGUGAAUCUGCGAAUUCUGCUGU", "self-cleavage": 0.277}
{"variant": "GGGGUCCACAGCAGAAGCGUUCACGUCGCGGCCCCUGUCAGAUUCGGGUGAAUCUGCGAAUUCUGCUGU", "self-cleavage": 0.321}
{"variant": "GGGGUCCACAGCAGAAGCGUUCACGUCGCGGCCCCUGUCAGAUUCCGGUGAAUCUGCGAAUUCUGCUGU", "self-cleavage": 0.254}
{"variant": "GGGGUCCACAGCAGAAGCGUUCACGUCGCGGCCCCUGUCAGAUUCAGGUGAAUCUGCGAAUUCUGCUGU", "self-cleavage": 0.24}
{"variant": "GGGGUCCACAGCAGAAGCGUACACGUCGCGGCCCCUGUCAGAUUCUGGUGAAUCUGCGAAUUCUGCUGU", "self-cleavage": 0.158}
{"variant": "GGGGUCCACAGCAGAAGCGUCCACGUCGCGGCCCCUGUCAGAUUCUGGUGAAUCUGCGAAUUCUGCUGU", "self-cleavage": 0.119}
{"variant": "GGGGUCCACAGCAGAAGCGUUCACGUCGCGGCCCCUGUCAGAUUCUGGUCAAUCUGCGAAUUCUGCUGU", "self-cleavage": 0.341}
{"variant": "GGGGUCCACAGCAGAAGCGUUCACGUCGCGGCCCCUGUCAGAUUCUGGUUAAUCUGCGAAUUCUGCUGU", "self-cleavage": 0.313}
{"variant": "GGGGGACACGGCAGAAGCGUUCACGUCGCGGCCCCUGUCAGAUUCUGGUGAAUCUGCGAAUUCUGCUGU", "self-cleavage": 0.798}
{"variant": "GGGGGACACUGCAGAAGCGUUCACGUCGCGGCCCCUGUCAGAUUCUGGUGAAUCUGCGAAUUCUGCUGU", "self-cleavage": 0.903}
{"variant": "GGGGGACACCGCAGAAGCGUUCACGUCGCGGCCCCUGUCAGAUUCUGGUGAAUCUGCGAAUUCUGCUGU", "self-cleavage": 0.67}
{"variant": "GGGGUCCACAGCAGAAGCGUUCACGUCGCGGCCCCGGUCAGAUUCUGGUGAAUCUGCGAAUUCUGCUGU", "self-cleavage": 0.343}
{"variant": "GGGGUCCACAGCAGAAGCGUUCACGUCGCGGCCCCAGUCAGAUUCUGGUGAAUCUGCGAAUUCUGCUGU", "self-cleavage": 0.0704}
{"variant": "GGGGUCCACAGCAUAAGCGUUCACGUCGCGGCCCCUGUCAGAUUCUGGUGAAUCUGCGAAUUCUGCUGU", "self-cleavage": 0.0546}
{"variant": "GGGGUCCACAGCAAAAGCGUUCACGUCGCGGCCCCUGUCAGAUUCUGGUGAAUCUGCGAAUUCUGCUGU", "self-cleavage": 0.078}
{"variant": "GGGGGACACAGCAGAAGCGUUCCCGUCGCGGCCCCUGUCAGAUUCUGGUGAAUCUGCGAAUUCUGCUGU", "self-cleavage": 0.519}
{"variant": "GGGGUCCACAGCAGAAGCUUUCACGUCGCGGCCCCUGUCAGAUUCUGGUGAAUCUGCGAAUUCUGCUGU", "self-cleavage": 0.0974}
{"variant": "GGGGUCCACAGCAGAAGCCUUCACGUCGCGGCCCCUGUCAGAUUCUGGUGAAUCUGCGAAUUCUGCUGU", "self-cleavage": 0.0535}
{"variant": "GGGGUCCACAGCAGAAGCGUUCACGUCGCGGCCCCUGUCAGAUUCUGGCGAAUCUGCGAAUUCUGCUGU", "self-cleavage": 0.232}
{"variant": "GGGGUCCACAGCAGAAGCGUUCACGUCGCGGCCCCUGUCAGAUUCUGGAGAAUCUGCGAAUUCUGCUGU", "self-cleavage": 0.316}
{"variant": "GGGGUCCACAGCAGAAGCGCUCACGUCGCGGCCCCUGUCAGAUUCUGGUGAAUCUGCGAAUUCUGCUGU", "self-cleavage": 0.0958}
{"variant": "GGGGUCCACAGCAGAAGCGAUCACGUCGCGGCCCCUGUCAGAUUCUGGUGAAUCUGCGAAUUCUGCUGU", "self-cleavage": 0.0505}
{"variant": "GGGGUCCACAGCAGAAGCGGUCACGUCGCGGCCCCUGUCAGAUUCUGGUGAAUCUGCGAAUUCUGCUGU", "self-cleavage": 0.0745}
{"variant": "GGGGUCCACAGCAGAAGCGUUCACGUCGCGGCCCCUGUCAGAUUCUGGUGAAUCUGCGAAUUCUGCUCU", "self-cleavage": 0.716}
{"variant": "GGGGUCCACAGCAGAAGCGUUCACGUCGCGGCCCCUGUCAGAUUCUGGUGAAUCUGCGAAUUCUGCUAU", "self-cleavage": 0.886}
{"variant": "GGGGUCCACAGCAGAAGCGUUCACGUCGCGGCCCCUGUCAGAUUCUGGUGAAUCUGCGAAUUCUGCUUU", "self-cleavage": 0.793}
{"variant": "GGGGUCCACAGCAGAAGCGUUCACGUCGCGGCCCCUGUCAGAUUCUGGUGAAUCUGCGAAUUCCGCUGU", "self-cleavage": 0.195}
{"variant": "GGGGUCCACAGCAGAAGCGUUCACGUCGCGGCCCCUGUCAGAUUCUGGUGAAUCUGCGAAUUCGGCUGU", "self-cleavage": 0.194}
{"variant": "GGGGUCCACAGCAGAAGCGUUCACGUCGCGGCCCCUGUCAGAUUCUGGUGAAUCUGCGAAUUCAGCUGU", "self-cleavage": 0.109}
{"variant": "GGGGUCCACAGCAGAAGCGUUCACGUCGCGGCCCCUCUCAGAUUCUGGUGAAUCUGCGAAUUCUGCUGU", "self-cleavage": 0.119}
{"variant": "GGGGUCCACAGCAGAAGCGUUCACGUCGCGGCCCCUUUCAGAUUCUGGUGAAUCUGCGAAUUCUGCUGU", "self-cleavage": 0.0584}
{"variant": "GGGGUCCACAGCAGAAGCGUUCACGUCGCGGCCCCUGUCAUAUUCUGGUGAAUCUGCGAAUUCUGCUGU", "self-cleavage": 0.0869}
{"variant": "GGGGUCCACAGCAGAAGCGUUCACGUCGCGGCCCCUGUCACAUUCUGGUGAAUCUGCGAAUUCUGCUGU", "self-cleavage": 0.113}
